Four substances from publication PMC7905540 can be followed below.

For data set [1], the system named is T1, XreR1 (Photorhabdus luminescens DJC), ORF:d6b45183.
T1 sequence: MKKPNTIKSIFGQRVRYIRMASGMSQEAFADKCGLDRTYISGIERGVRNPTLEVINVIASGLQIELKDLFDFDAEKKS
The data set is described as follows: MST. The settings on record: SPR (Biacore 3000, SA chip), proteins in dialysis buffer: 50 mM Tris/HCl pH 7.5, 10% glycerol, 500 mM NaCl, 2 mM beta-mercaptoethanol; 25 C; 30 ul/min; 1:1 ….

For data set [2], the system named is T2, XreR2 (Photorhabdus luminescens DJC), ORF:b2ab5127.
T2 sequence: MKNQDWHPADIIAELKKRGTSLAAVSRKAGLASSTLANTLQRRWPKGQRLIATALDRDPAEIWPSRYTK
The data set is described as follows: MST. The settings on record: SPR (Biacore 3000, SA chip), proteins in dialysis buffer: 50 mM Tris/HCl pH 7.5, 10% glycerol, 500 mM NaCl, 2 mM beta-mercaptoethanol; 25 C; 30 ul/min; 1:1 …. In general terms: SPR reads the build-up and loss of mass on a sensor chip optically.

Data set [3] relates to T1, XreR1 (Photorhabdus luminescens DJC), ORF:d6b45183. In words: SPR. The settings on record: SPR (Biacore 3000, SA chip), proteins in dialysis buffer: 50 mM Tris/HCl pH 7.5, 10% glycerol, 500 mM NaCl, 2 mM beta-mercaptoethanol; 25 C; 30 ul/min; 1:1 ….
Data set [4] has as its system T2, XreR2 (Photorhabdus luminescens DJC), ORF:b2ab5127. In words: SPR. The following applies: SPR (Biacore 3000, SA chip), proteins in dialysis buffer: 50 mM Tris/HCl pH 7.5, 10% glycerol, 500 mM NaCl, 2 mM beta-mercaptoethanol; 25 C; 30 ul/min; 1:1 ….
Data set [5] has as its system XreR1 (Photorhabdus luminescens DJC). The data set is described as follows: SPR. The following applies: SPR (Biacore 3000, SA chip), proteins in dialysis buffer: 50 mM Tris/HCl pH 7.5, 10% glycerol, 500 mM NaCl, 2 mM beta-mercaptoethanol, 25 C, 30 ul/min, 1:1 ….

What is called Kd is a measure of binding affinity in units of concentration. “GGGTGCCAGTCTTGATTTTTCATTAATTAATCCTCCGTGTTACGGATAACTTTGATATGAAAAGGTAAGTCGTTACATAGTAGACTATAAGTCACATATGATAACATAACTTACCATAAAAAGTGACTCATAGTCCGTGGTCTGATAAGTAACATCATTCGATACTTATCAG (double strand) [PxreR2]”: the binding result in data set [1], in data set [2] and in data set [4] was “binds” in each case. The Kd in data set [3] amounted to 0.3 nM.
On to “GTTTCATAGCACACCTCAGAAACACACTTAAAATGAACATGAGGAAATGGATTGCGAGCAGGAAAAGATAAATGCAAACAGCTATAAGTAATCATTACTCTTACCGAATGATATAAAGTAGATTGGAGCAGCTTATCTCATTGATAAACTACTCCACTTTAATTTACAGCCAC (double strand) [PpTAS]”, for which the binding result in data set [2] is on record as “binds”; in data set [3] it was “no binding”; in data set [4], “binds”.
In the case of PxreR1, the Kd in data set [5] (ka 4.5E+06 1/Ms, kd 2.9E-3 1/s) amounted to 0.6 nM.
For the substance PxreR2, the dissociation constant Kd in data set [5] (ka printed 2.8E+05 1/Ms, kd 8.9E-4 1/s (ratio inconsistent with the printed KD)) was 0.3 nM.
